{"source": "paper PMC6770530", "about": "“Tumor Uptake of Triazine Dendrimers Decorated with Four, Sixteen, and Sixty-Four PSMA-Targeted Ligands: Passive versus Active Tumor Targeting” (Biomolecules, 2019)", "key": {"PSMA [1]": {"target": "T1, PSMA (Homo sapiens, UniProt Q04609)", "T1 construct": "expressed in transfected cells; host or cells: PC3-PIP cells (PSMA positive)", "T1 sequence (Q04609 whole entry)": "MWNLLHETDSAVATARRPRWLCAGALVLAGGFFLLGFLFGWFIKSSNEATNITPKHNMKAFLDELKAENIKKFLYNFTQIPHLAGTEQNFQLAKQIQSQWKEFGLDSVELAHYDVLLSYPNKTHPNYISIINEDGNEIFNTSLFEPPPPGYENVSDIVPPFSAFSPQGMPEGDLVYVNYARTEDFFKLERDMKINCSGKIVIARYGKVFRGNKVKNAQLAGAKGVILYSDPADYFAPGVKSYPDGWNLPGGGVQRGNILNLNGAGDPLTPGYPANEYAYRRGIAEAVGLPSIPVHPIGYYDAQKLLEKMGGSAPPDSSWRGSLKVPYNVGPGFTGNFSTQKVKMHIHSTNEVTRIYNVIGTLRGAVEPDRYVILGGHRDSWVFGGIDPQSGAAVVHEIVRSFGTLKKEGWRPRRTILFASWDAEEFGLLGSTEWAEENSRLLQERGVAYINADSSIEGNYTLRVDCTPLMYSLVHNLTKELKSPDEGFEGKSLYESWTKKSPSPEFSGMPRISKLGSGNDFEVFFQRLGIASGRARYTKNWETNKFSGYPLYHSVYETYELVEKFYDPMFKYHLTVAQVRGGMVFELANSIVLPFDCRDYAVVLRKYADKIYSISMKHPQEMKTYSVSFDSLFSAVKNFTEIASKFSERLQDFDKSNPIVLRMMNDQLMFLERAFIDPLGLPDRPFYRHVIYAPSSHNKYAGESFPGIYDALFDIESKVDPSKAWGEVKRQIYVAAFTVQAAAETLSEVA", "design": "method as in PMID 15027864, PMID 25822623", "details": "cited from earlier work"}, "PSMA [2]": {"target": "T1, PSMA", "assay": "Competitive cell-binding assay with 125I-labeled PSMA radioligand in PC3-PIP cells", "details": "read-out: IC50 (displacing 50% of the 125I-labeled PSMA radioligand bound to PC3-PIP cells), room temperature 2 h, n = 4", "description": "A reported PSMA ^125I-radioligand [21] was used as a PSMA-specific radioligand in the assay. PC3-PIP cells were suspended in Tris-buffered saline (TBS) and seeded on multiwell DV plates (Millipore) with 5 × 10^4 cells per well. […] The unbound ^125I-radioligand was removed by filtration. The wells were rinsed five times with cold TBS buffer. The filters were then collected and their radioactivity was measured on a 2480 automatic gamma counter (PerkinElmer)."}, "[3]": {"tested_on": "PC3-PIP (PSMA positive) and PC3-FLU (PSMA negative) cells", "assay": "Cell uptake of 64Cu-labeled dendrimers in PC3-PIP and PC3-FLU cells", "type": "cell-based", "details": "64Cu-labeled dendrimer, 1 h at 37 °C, n = 3", "description": "Cell uptake experiments were conducted in the PSMA positive PC3-PIP cell lines and the PSMA negative PC-FLU cell lines. The cells (5.0 × 10^5) were seeded to a 6-well plate and incubated at 37 °C overnight in a humidified incubator with 5% CO2. After being rinsed with binding buffer (20 mM Tris, 150 mM NaCl, pH 7.4), the cells in binding buffer (500 µL) were incubated at 37 °C with ~6.0 × 10^5 CPM of ^64Cu-labeled dendrimers for 1 h, washed with cold binding buffer, and then trypsinized. The radioactivity of trypsinized cells was counted on a 2480 automatic gamma counter (PerkinElmer)."}, "PC3-PIP cells": {"tested_on": "PC3-PIP cells", "assay": "Internalization of 64Cu-labeled dendrimers in PC3-PIP cells", "type": "cell-based", "details": "64Cu-labeled dendrimer, incubation 1-120 min", "description": "The PC3-PIP cells were used for the internalization study. The 12-well plates containing ~2.0 × 10^5 cells were incubated overnight in a humidified incubator at 37 °C with 5% CO2 and then washed with binding buffer (20 mM Tris, 150 mM NaCl, pH 7.4). Each solution of ^64Cu-labeled dendrimers (~6.0 × 10^5 CPM) in 0.4 mL of binding buffer was incubated with the cells for 1, 10, 30, 60, and 120 min, respectively, and then washed once with ice-cold binding buffer. The surface bound ^64Cu-labeled dendrimers were removed by incubating cells twice for 5 min with 0.5 mL of ice-cold low pH stripping buffer (150 mM NaCl, 50 mM glycine, pH 3.0) and collected in a culture tube. After incubation with 0.5 mL of 4 M NaOH at 37 °C for 15 min, the NaOH-solubilized cells were collected in separate culture tubes. The radioactivity of surface bound/internalized ^64Cu-labeled dendrimers was counted on a 2480 automatic gamma counter (PerkinElmer)."}, "[4]": {"assay": "Serum stability assay of 64Cu-labeled dendrimers", "type": "in vitro ADME, rat", "description": "The stability of ^64Cu-labeled dendrimers was evaluated in rat serum. […] An aliquot of sample (10 µL) was mixed with 5 mM EDTA (100-fold molar excess) and incubated at 37 °C for 10 min. The resulting solution was analyzed by a Rita Star Radioisotope TLC Analyzer."}, "[5]": {"details": "mouse, in vivo, iv, 64Cu-labeled dendrimer; for tissue uptake at 1 h: 1 h p.i.; for tissue uptake at 4 h: 4 h p.i."}, "[6]": {"tested_on": "SCID mice bearing PC3-PIP and PC3-FLU xenografts", "details": "64Cu-labeled dendrimer, i.v., 4 h p.i."}, "[7]": {"design": "method as in PMID 23398590", "details": "estimated by dynamic light scattering of unfunctionalized analogues; cited from earlier work"}, "[8]": {"details": "In vivo organ uptake, Left Kidney"}, "[9]": {"details": "In vivo organ uptake, Right Kidney"}, "[10]": {"details": "In vivo tumor uptake, PC3-FLU, PSMA negative xenograft right shoulder"}, "[11]": {"details": "In vivo tumor uptake, PC3-PIP, PSMA positive xenograft left shoulder"}}, "note": "Like-named read-outs stand apart in the source and are kept apart here."}
{"smiles": "O=C(O)CCC(NC(=O)NC(CCC(=O)O)C(=O)O)C(=O)O", "note": "(stereo not shown) [DUPA, 2-[3-(1,3-dicarboxypropyl)-ureido] pentanedioic acid]", "values": [{"measurement": "IC50", "setting": "PSMA [1]", "result": 47, "unit": "nM"}, {"measurement": "Ki", "setting": "PSMA [1]", "result": 8, "unit": "nM"}]}
{"smiles": "NCC1CCN(c2nc(NCCCOCCOCCOCCCNC(=O)CCCCCCCNC(=O)CC[C@H](NC(=O)N[C@@H](CCC(=O)O)C(=O)O)C(=O)O)nc(N3CCN(c4nc(NCCCOCCOCCOCCCNc5nc(NCCCOCCOCCOCCCNC(=O)CCC(C(=O)O)N6CCN(CC(=O)O)CCN(CC(=O)O)CCN(CC(=O)O)CC6)nc(NCCCOCCOCCOCCCNc6nc(N7CCN(c8nc(NCCCOCCOCCOCCCNC(=O)CCCCCCCNC(=O)CC[C@H](NC(=O)N[C@@H](CCC(=O)O)C(=O)O)C(=O)O)nc(N9CCC(CN)CC9)n8)CC7)nc(N7CCN(c8nc(NCCCOCCOCCOCCCNC(=O)CCCCCCCNC(=O)CC[C@H](NC(=O)N[C@@H](CCC(=O)O)C(=O)O)C(=O)O)nc(N9CCC(CN)CC9)n8)CC7)n6)n5)nc(N5CCN(c6nc(NCCCOCCOCCOCCCNC(=O)CCCCCCCNC(=O)CC[C@H](NC(=O)N[C@@H](CCC(=O)O)C(=O)O)C(=O)O)nc(N7CCC(CN)CC7)n6)CC5)n4)CC3)n2)CC1", "note": "(stereo partly shown) [G1-(DUPA)4]", "values": [{"measurement": "IC50", "setting": "PSMA [2]", "result": 282, "unit": "nM"}, {"measurement": "PC3-PIP to PC3-FLU cell uptake ratio", "setting": "[3]", "result": 10}, {"measurement": "highest (maximum) internalization", "setting": "PC3-PIP cells", "result": 49, "unit": "%"}, {"measurement": "serum stability", "setting": "[4]", "result": "stable in rat serum and remained intact over 24 h"}, {"measurement": "tissue uptake at 1 h", "setting": "[5]; In vivo organ uptake, Bone", "result": "0.08 ± 0.03", "unit": "%ID/g"}, {"measurement": "tissue uptake at 4 h", "setting": "[5]; In vivo organ uptake, Bone", "result": "0.07 ± 0.01", "unit": "%ID/g"}, {"measurement": "tissue uptake at 24 h", "setting": "[5]; In vivo organ uptake, Bone, 24 h p.i.", "result": "0.08 ± 0.02", "unit": "%ID/g"}, {"measurement": "tissue uptake at 1 h", "setting": "[5]; In vivo organ uptake, Brain", "result": "0.03 ± 0.01", "unit": "%ID/g"}, {"measurement": "tissue uptake at 4 h", "setting": "[5]; In vivo organ uptake, Brain", "result": 0.02, "unit": "%ID/g"}, {"measurement": "tissue uptake at 24 h", "setting": "[5]; In vivo organ uptake, Brain, 24 h p.i.", "result": 0.07, "unit": "%ID/g"}, {"measurement": "tissue uptake at 1 h", "setting": "[5]; In vivo organ uptake, Heart", "result": "0.16 ± 0.05", "unit": "%ID/g"}, {"measurement": "tissue uptake at 4 h", "setting": "[5]; In vivo organ uptake, Heart", "result": "0.1 ± 0.02", "unit": "%ID/g"}, {"measurement": "tissue uptake at 24 h", "setting": "[5]; In vivo organ uptake, Heart, 24 h p.i.", "result": "0.25 ± 0.05", "unit": "%ID/g"}, {"measurement": "tissue uptake at 1 h", "setting": "[5]; [8]", "result": "53.3 ± 4.37", "unit": "%ID/g"}, {"measurement": "tissue uptake at 4 h", "setting": "[5]; [8]", "result": "58.7 ± 4.98", "unit": "%ID/g"}, {"measurement": "tissue uptake at 24 h", "setting": "[5]; In vivo organ uptake, Left Kidney, 24 h p.i.", "result": "54 ± 5.96", "unit": "%ID/g"}, {"measurement": "tissue uptake at 1 h", "setting": "[5]; In vivo organ uptake, Liver", "result": "1.03 ± 0.16", "unit": "%ID/g"}, {"measurement": "tissue uptake at 4 h", "setting": "[5]; In vivo organ uptake, Liver", "result": "1.2 ± 0.2", "unit": "%ID/g"}, {"measurement": "tissue uptake at 24 h", "setting": "[5]; In vivo organ uptake, Liver, 24 h p.i.", "result": "1.93 ± 0.15", "unit": "%ID/g"}, {"measurement": "tissue uptake at 1 h", "setting": "[5]; In vivo organ uptake, Muscle", "result": "0.06 ± 0.03", "unit": "%ID/g"}, {"measurement": "tissue uptake at 4 h", "setting": "[5]; In vivo organ uptake, Muscle", "result": "0.05 ± 0.01", "unit": "%ID/g"}, {"measurement": "tissue uptake at 24 h", "setting": "[5]; In vivo organ uptake, Muscle, 24 h p.i.", "result": "0.13 ± 0.03", "unit": "%ID/g"}, {"measurement": "tissue uptake at 1 h", "setting": "[5]; [9]", "result": "56.8 ± 5.14", "unit": "%ID/g"}, {"measurement": "tissue uptake at 4 h", "setting": "[5]; [9]", "result": "60 ± 3.27", "unit": "%ID/g"}, {"measurement": "tissue uptake at 24 h", "setting": "[5]; In vivo organ uptake, Right Kidney, 24 h p.i.", "result": "55 ± 7.36", "unit": "%ID/g"}, {"measurement": "tissue uptake at 1 h", "setting": "[5]; [10]", "result": "0.18 ± 0.05", "unit": "%ID/g"}, {"measurement": "tissue uptake at 4 h", "setting": "[5]; [10]", "result": "0.13 ± 0.02", "unit": "%ID/g"}, {"measurement": "tissue uptake at 24 h", "setting": "[5]; In vivo tumor uptake, PC3-FLU, PSMA negative xenograft right shoulder, 24 h p.i.", "result": "0.33 ± 0.06", "unit": "%ID/g"}, {"measurement": "tissue uptake at 1 h", "setting": "[5]; [11]", "result": "0.99 ± 0.36", "unit": "%ID/g"}, {"measurement": "tissue uptake at 4 h", "setting": "[5]; [11]", "result": "0.87 ± 0.4", "unit": "%ID/g"}, {"measurement": "tissue uptake at 24 h", "setting": "[5]; In vivo tumor uptake, PC3-PIP, PSMA positive xenograft left shoulder, 24 h p.i.", "result": "0.81 ± 0.36", "unit": "%ID/g"}, {"measurement": "tissue uptake at 24 h", "setting": "[5]; level of kidney uptake, over 24 h p.i.", "result": "45 to 55", "unit": "%ID/g"}, {"measurement": "PC3-PIP to PC3-FLU uptake ratio (in vivo)", "setting": "[6]", "result": "6.7 ± 3.0"}, {"measurement": "PC3-PIP to muscle uptake ratio", "setting": "[6]", "result": "17.7 ± 5.5"}, {"measurement": "dimensions", "setting": "[7]", "result": "approximately 2 nm"}]}
